Consider 2 molecules from publication PMC9860126, “Mechanistic insights into the nickel-dependent allosteric response of the Helicobacter pylori NikR transcription factor”.

Series [1] concerns the target HpNikR E62A (Helicobacter pylori G27, UniProt A1YSQ9 1-148, E62A). Kind of series: fluorescence anisotropy; apo (no Ni); FA: 5 nM DNA, 20 mM Tris pH 7.6, 100 mM NaCl, 3 mM MgSO4, temperature not stated (Ni loading 1.2 eq NiSO4 per monomer at RT). EMSA: 20 mM Tris pH 7.5, 100 mM KCl, 3 mM MgCl2, 0.1% IGEPAL, 5% glycerol, 0.1 mg/ml herring sperm DNA, RT; gel with 800 uM NiSO4 at 4 C. The following applies: protein: recombinant; tags: none stated; chain copies: 4; label: fluorescein on internal thymine (T14 of strand 1); blunt.

In series [2] the target is HpNikR W54A (Helicobacter pylori G27, UniProt A1YSQ9 1-148, W54A). Described as above. The following applies: protein: recombinant; tags: none stated; chain copies: 4; label: fluorescein on internal thymine (T14 of strand 1); blunt.
In series [3] the target is HpNikR K48A (Helicobacter pylori G27, UniProt A1YSQ9 1-148, K48A). The description is as above. The following applies: protein: recombinant; tags: none stated; chain copies: 4; label: fluorescein on internal thymine (T14 of strand 1); blunt.
The target of series [4] is HpNikR E56A (Helicobacter pylori G27, UniProt A1YSQ9 1-148, E56A). Described as above. To be noted: protein: recombinant; tags: none stated; chain copies: 4; label: fluorescein on internal thymine (T14 of strand 1); blunt.
The target of series [5] is HpNikR T92A (Helicobacter pylori G27, UniProt A1YSQ9 1-148, T92A). The description is as above. The following applies: protein: recombinant; tags: none stated; chain copies: 4; label: fluorescein on internal thymine (T14 of strand 1); blunt.
The target of series [6] is HpNikR Q81A (Helicobacter pylori G27, UniProt A1YSQ9 1-148, Q81A). The description is as above. To be noted: protein: recombinant; tags: none stated; chain copies: 4; label: fluorescein on internal thymine (T14 of strand 1); blunt.
Series [7] has as its target T1, HpNikR WT (Helicobacter pylori G27 (from vector …, UniProt A1YSQ9 1-148)).
T1 sequence: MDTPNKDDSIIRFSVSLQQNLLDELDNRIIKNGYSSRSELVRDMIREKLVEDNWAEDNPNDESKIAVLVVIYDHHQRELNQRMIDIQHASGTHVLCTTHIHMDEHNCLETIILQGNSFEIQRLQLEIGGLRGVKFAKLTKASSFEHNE
The series is described as above. The following applies: protein: recombinant; tags: none stated (untagged purification); chain copies: 4; label: fluorescein on internal thymine (T14 of strand 1); blunt.

In series [8] the target is HpNikR K134A (Helicobacter pylori G27, UniProt A1YSQ9 1-148, K134A). Described as above. The following applies: protein: recombinant; tags: none stated; chain copies: 4; label: fluorescein on internal thymine (T14 of strand 1); blunt.
Series [9] has as its target HpNikR K140A (Helicobacter pylori G27, UniProt A1YSQ9 1-148, K140A). Kind of series: fluorescence anisotropy; Ni(II)-bound; FA: 5 nM DNA, 20 mM Tris pH 7.6, 100 mM NaCl, 3 mM MgSO4, temperature not stated (Ni loading 1.2 eq NiSO4 per monomer at RT). EMSA: 20 mM Tris pH 7.5, 100 mM KCl, 3 mM MgCl2, 0.1% IGEPAL, 5% glycerol, 0.1 mg/ml herring sperm DNA, RT; gel with 800 uM NiSO4 at 4 C. To be noted: protein: recombinant; tags: none stated; chain copies: 4; label: fluorescein on internal thymine (T14 of strand 1); blunt.

For series [10], the target named is HpNikR Δ3aa (Helicobacter pylori G27, UniProt A1YSQ9 1-58+62-148, internal_change). The description is as above. The following applies: protein: recombinant; tags: none stated; chain copies: 4; label: fluorescein on internal thymine (T14 of strand 1); blunt.

B1: ureA promoter 32 bp (FA) (dsDNA)
DNA 1: ATATAACACTAATTCATTTTAAATAATAATTA
DNA 2: TAATTATTATTTAAAATGAATTAGTGTTATAT
For B1, the Kd (usually the free concentration of one partner at which half of the binding sites on the other are occupied at equilibrium, for simple one-to-one binding) in [1] turned out to be 2.6 ± 0.2 µM; in [2] it was 6.1 ± 1 µM; in series [4] it was 1800 ± 300 nM; in series [5], 2200 ± 200 nM; in series [6], 2000 ± 500 nM; in series [7], 4.9 ± 1.7 µM. For the same molecule, the equilibrium dissociation constant (Kd) in [8] was 1700 ± 700 nM; in [9], 63 ± 5.6 nM; in series [10], 4.4 ± 1.3 nM. Besides, in [3], the binding result is “no binding”.

B2: ureA-perf promoter 32 bp (dsDNA)
DNA 1: ATATATTATTAATTCATTTTAAATAATAATTA
DNA 2: TAATTATTATTTAAAATGAATTAATAATATAT
For the molecule B2, the Kd came out at 4.2 ± 0.7 µM in series [1]; 3.7 ± 0.2 µM in [2]; 1200 ± 100 nM in series [4]; 2500 ± 400 nM in [5]; 1600 ± 600 nM in series [6]; 4.1 ± 1.1 µM in series [7]. Besides, the Kd in series [8] is 1000 ± 300 nM. For the same molecule, in series [3], the binding result is given as “no binding”.
